Results: patent US20150031864A1

Molecular target: human growth hormone receptor on IM-9 cells (human) (UniProt P10912)
Test: cell-based or functional assay

UniProt P10912, sequence (P10912 19-638): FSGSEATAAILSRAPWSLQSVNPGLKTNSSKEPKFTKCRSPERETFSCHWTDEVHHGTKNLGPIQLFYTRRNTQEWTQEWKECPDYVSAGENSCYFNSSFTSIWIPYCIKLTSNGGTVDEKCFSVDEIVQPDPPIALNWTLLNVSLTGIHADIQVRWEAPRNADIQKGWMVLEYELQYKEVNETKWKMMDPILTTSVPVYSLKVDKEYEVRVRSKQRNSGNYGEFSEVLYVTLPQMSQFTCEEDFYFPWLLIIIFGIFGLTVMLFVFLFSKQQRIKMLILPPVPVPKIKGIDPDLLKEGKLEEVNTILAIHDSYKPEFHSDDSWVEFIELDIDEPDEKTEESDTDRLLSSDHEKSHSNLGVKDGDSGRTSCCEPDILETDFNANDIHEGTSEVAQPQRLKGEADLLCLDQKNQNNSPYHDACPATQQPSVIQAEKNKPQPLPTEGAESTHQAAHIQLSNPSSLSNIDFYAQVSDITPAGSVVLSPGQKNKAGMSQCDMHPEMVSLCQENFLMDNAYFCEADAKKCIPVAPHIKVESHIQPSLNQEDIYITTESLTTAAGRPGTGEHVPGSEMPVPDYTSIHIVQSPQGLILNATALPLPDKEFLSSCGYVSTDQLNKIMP

EC50 (nM) of STAT5 phosphorylation in IM-9 cells [nM] | Substance
1 | N-6His P133pAF hGH (from UniProt P01241 27-217) (ligand)
0.8 | N-6His G131pAF hGH (from UniProt P01241 27-217) (ligand)
8.5 | N-6His N99pAF hGH (from UniProt P01241 27-217) (ligand)
130000 | N-6His Y103pAF hGH (from UniProt P01241 27-217) (ligand)
2 | N-6His Q91pAF hGH (from UniProt P01241 27-217) (ligand)
0.8 | N-6His F92pAF hGH (from UniProt P01241 27-217) (ligand)
2.7 | N-6His K140pAF hGH (from UniProt P01241 27-217) (ligand)
1 | N-6His Y111pAF hGH (from UniProt P01241 27-217) (ligand)
0.9 | N-6His E88pAF hGH (from UniProt P01241 27-217) (ligand)
3.3 | N-6His F139pAF hGH (from UniProt P01241 27-217) (ligand)
1.4 | N-6His G136pAF hGH (from UniProt P01241 27-217) (ligand)
> 200000 | rat GH WT (from UniProt P01244 27-216) (ligand)
0.8 | N-6His Y143pAF hGH (from UniProt P01241 27-217) (ligand)
0.9 | N-6His R134pAF hGH (from UniProt P01241 27-217) (ligand)
16.7 | N-6His S95pAF hGH (from UniProt P01241 27-217) (ligand)
0.9 | N-6His T135pAF hGH (from UniProt P01241 27-217) (ligand)
1.3 | N-6His A155pAF hGH (from UniProt P01241 27-217) (ligand)
